Reference: US20050048073A1, “Methods of determining west nile virus epitopes and method of using the same” (priority 2001, published 2005)
“And” between values parts separate entries of the source, which are not always exact repeats. Identical values can stand only once.

Columns and labels:
HLA B*07 (human) [1] = experiment: T2B7 HLA stabilisation assay, flow cytometry, 10/20/200 ug/ml, four assays; details: for Binding results (total of four assays): scale: of 3 concentrations positive
HLA B*07 (human) [2] = experiment: T2B7 HLA stabilisation assay, flow cytometry, peptide at 200 ug/ml

| Binder | Binding number (binding score) (HLA B*07 (human) [1]) | Binding results (total of four assays) (of 3 concentrations positive, in 1 assay) (HLA B*07 (human) [1]) | Binding results (total of four assays) (HLA B*07 (human) [1]; in 2 assays) | Avg. Fold Inc. @ 200 (fold over background) (HLA B*07 (human) [2]) | Avg. MFI 200 (HLA B*07 (human) [2]) [MFI] | Binding results (total of four assays) (HLA B*07 (human) [1]; in 4 assays) | Binding results (total of four assays) (HLA B*07 (human) [1]; in 3 assays) |
| --- | --- | --- | --- | --- | --- | --- | --- |
| TPAAPSYTLK [WNVB7 0009] | 8 | 3 and 1 | 2 | 1.5 | 954 |  |  |
| PETPQGLAKI [WNVB7 3403] | 0 |  |  | 1 | 589 | 0 |  |
| VPGTKIAGML [WNVB7 0018] | 6 | 3 and 2 | 1 | 1.7 | 1090 |  |  |
| VPCRGQDELV [WNVB7 0010] | 4 |  | 2 | 1 | 659 |  |  |
| PEDIDCWCTK [WNVB7 3399] | 1 | 1 |  | 1.1 | 990 |  |  |
| IPAGFEPEML [WNVB7 0008] | 10 | 1 |  | 1.9 | 1210 |  | 3 |
| SPHRVPNYNL [WNVB7 0020] | 12 |  |  | 2.5 | 1610 | 3 |  |
| EPPEGVKYVL [WNVB7 0013] | 6 | 3 and 2 and 1 |  | 1.1 | 682 |  |  |
| RPAADGRTVM [WNVB7 0023] | 12 |  |  | 1.5 | 979 | 3 |  |
| RPRWIDARVY [WNVB7 0017] | 11 | 2 |  | 1.9 | 1710 |  | 3 |
| RPQRHDEKTL [WNVB7 0019] | 11 | 2 |  | 2.8 | 1640 |  | 3 |
| GPGHEEPQLV [WNVB7 0011] | 2 | 2 |  | 1 | 849 |  |  |
| KPTGSASSLV [WNVB7 0015] | 6 |  | 2 and 1 | 1.7 | 1070 |  |  |
| TPGLRCLNLD [WNVB7 0024] | 2 |  | 1 | 1 | 850 |  |  |
